# Measurements published in US11135246B2, “Peptides and combination of peptides for use in immunotherapy against leukemias and other cancers” (Immatics Biotechnologies GmbH, priority 2017, dated 2021).
# Molecular target: HLA-B*44:02 (Homo sapiens, UniProt P01889, A223V/A65T/A93T/A95T/D201E/D98Y/E176V/E187L/E204Q/E69K/G107R/H137Y/K202T/L105A/L119I/N104T/N87E/Q56L/Q94N/R106L/R155S/R180D/S101N/S121R/S35A/S48T/T118I/V36M/W191S/Y140D/Y91S)
# Experiment: MHC binding assay, UV-ligand exchange with β2m ELISA, HLA-B*44:02
# Conditions: binding to HLA-B*44:02, UV-ligand exchange
# Source text: Candidate peptides for T cell based therapies according to the present invention were further tested for their MHC binding capacity (affinity). The individual peptide-MHC complexes were produced by UV-ligand exchange, where a UV-sensitive peptide is cleaved upon UV-irradiation, and exchanged with the peptide of interest as analyzed. Only peptide candidates that can effectively bind and stabilize the peptide-receptive MHC molecules prevent dissociation of the MHC complexes. To determine the yield of the exchange reaction, an ELISA was performed based on the detection of the light chain (β2m) of stabilized MHC complexes. The assay was performed as generally described in Rodenko et al. (Rodenko et al., 2006).
# 96 well MAXISorp plates (NUNC) were coated over night with 2 ug/ml streptavidin in PBS at room temperature, washed 4× and blocked for 1 h at 37° C. in 2% BSA containing blocking buffer. Refolded HLA-A*02:01/MLA-001 monomers served as standards, covering the range of 15-500 ng/ml. Peptide-MHC monomers of the UV-exchange reaction were diluted 100-fold in blocking buffer. Samples were incubated for 1 h at 37° C., washed four times, incubated with 2 ug/ml HRP conjugated anti-β2m for 1 h at 37° C., washed again and detected with TMB solution that is stopped with […]. Absorption was measured at 450 nm. Candidate peptides that show a high exchange yield (preferably higher than 50%, most preferred higher than 75%) are generally preferred for a generation and production of antibodies or fragments thereof, and/or T cell receptors or fragments thereof, as they show sufficient avidity to the MHC molecules and prevent dissociation of the MHC complexes.
row,"Peptide exchange (MHC class I binding score, peptide exchange yield)",Substance
1,“+++” (>50 = +++),145 (AEPLVGQRW; listed as Homo sapiens) [compound 145]
2,“+++” (>50 = +++),146 (SESKTVVTY; listed as Homo sapiens) [compound 146]
3,“++” (>20% = ++),147 (KEVPRSYEL; listed as Homo sapiens) [compound 147]
4,“++” (>20% = ++),148 (REYNEYENI; listed as Homo sapiens) [compound 148]
5,“+++” (>50 = +++),149 (SEKETVAYF; listed as Homo sapiens) [compound 149]
6,“++” (>20% = ++),150 (EEVTDRSQL; listed as Homo sapiens) [compound 150]
7,“++” (>20% = ++),151 (EVDASIFKAW; listed as Homo sapiens) [compound 151]
8,“++” (>20% = ++),152 (AELLAKELY; listed as Homo sapiens) [compound 152]
9,“++” (>20% = ++),153 (KEFEQVPGHL; listed as Homo sapiens) [compound 153]
10,“+++” (>50 = +++),154 (AEPGPVITW; listed as Homo sapiens) [compound 154]
11,“+++” (>50 = +++),155 (NEFPVIVRL; listed as Homo sapiens) [compound 155]
12,“+++” (>50 = +++),156 (FEVESLFQKY; listed as Homo sapiens) [compound 156]
13,“+++” (>50 = +++),157 (VEIAEAIQL; listed as Homo sapiens) [compound 157]
14,“++” (>20% = ++),158 (GENEDNRIGL; listed as Homo sapiens) [compound 158]
15,“+++” (>50 = +++),159 (GELLGRQSF; listed as Homo sapiens) [compound 159]
16,“++” (>20% = ++),160 (EEETILHFF; listed as Homo sapiens) [compound 160]
17,“+++” (>50 = +++),161 (EEGDTLLHLF; listed as Homo sapiens) [compound 161]
18,“++” (>20% = ++),162 (DEAQARAAF; listed as Homo sapiens) [compound 162]
19,“++++” (>75% = ++++),163 (EEWMGLLEY; listed as Homo sapiens) [compound 163]
20,“++” (>20% = ++),164 (SEYSHLTRV; listed as Homo sapiens) [compound 164]
21,“++” (>20% = ++),165 (VELDLQRSV; listed as Homo sapiens) [compound 165]
22,“+” (>10% = +),166 (NEVLASKY; listed as Homo sapiens) [compound 166]
23,“+++” (>50 = +++),167 (KEIGAAVQAL; listed as Homo sapiens) [compound 167]
24,“+++” (>50 = +++),168 (QEIQSLLTNW; listed as Homo sapiens) [compound 168]
25,“++” (>20% = ++),169 (EENGEVKEL; listed as Homo sapiens) [compound 169]
26,“+++” (>50 = +++),170 (SENEQRRMF; listed as Homo sapiens) [compound 170]
27,“++” (>20% = ++),171 (SEDLAVHLY; listed as Homo sapiens) [compound 171]

# Second part, the substance before the results:
row,Substance,"Peptide exchange (MHC class I binding score, peptide exchange yield)"
1,122 (KELPGVKKY; listed as Homo sapiens) [compound 122],“++” (>20% = ++)
2,123 (EENPGKFLF; listed as Homo sapiens) [compound 123],“+++” (>50 = +++)
3,124 (SESLPKEAF; listed as Homo sapiens) [compound 124],“++” (>20% = ++)
4,125 (SESTFDRTF; listed as Homo sapiens) [compound 125],“+++” (>50 = +++)
5,126 (EENKPGIVY; listed as Homo sapiens) [compound 126],“++” (>20% = ++)
6,127 (TEYPVFVY; listed as Homo sapiens) [compound 127],“+” (>10% = +)
7,128 (GENDRLNHTY; listed as Homo sapiens) [compound 128],“++” (>20% = ++)
8,129 (GEGAYGKVF; listed as Homo sapiens) [compound 129],“++++” (>75% = ++++)
9,130 (EEEHGKGREY; listed as Homo sapiens) [compound 130],“++” (>20% = ++)
10,131 (EEFETIERF; listed as Homo sapiens) [compound 131],“++” (>20% = ++)
11,132 (GELPAVRDL; listed as Homo sapiens) [compound 132],“++” (>20% = ++)
12,133 (AEHNFVAKA; listed as Homo sapiens) [compound 133],“+++” (>50 = +++)
13,134 (SEYADTHYF; listed as Homo sapiens) [compound 134],“+++” (>50 = +++)
14,135 (NEIKVYITF; listed as Homo sapiens) [compound 135],“+++” (>50 = +++)
15,136 (AEYKGRVTL; listed as Homo sapiens) [compound 136],“++++” (>75% = ++++)
16,137 (GELGGSVTI; listed as Homo sapiens) [compound 137],“+++” (>50 = +++)
17,138 (SQAPAARAF; listed as Homo sapiens) [compound 138],“++” (>20% = ++)
18,139 (RENQVLGSGW; listed as Homo sapiens) [compound 139],“+++” (>50 = +++)
19,140 (EYDLKWEF; listed as Homo sapiens) [compound 140],“++” (>20% = ++)
20,141 (REYEYDLKWEF; listed as Homo sapiens) [compound 141],“+++” (>50 = +++)
21,142 (TEIFKEHNF; listed as Homo sapiens) [compound 142],“++” (>20% = ++)
22,143 (YEYDLKWEF; listed as Homo sapiens) [compound 143],“+++” (>50 = +++)
23,144 (TEGKRYFTW; listed as Homo sapiens) [compound 144],“+++” (>50 = +++)
